Measured values reported in paper PMC11109279, “Heliorhodopsin-mediated light-modulation of ABC transporter” (Nature Communications, 2024).

Assays:
[1] = biological target: T1, heterodimeric multidrug resistance ABC transporter OmrDE (Omithinimicrobium cerasi strain USBA17B2, UniProt A0A285VW85 1-577; A0A285VWG3 1-661); assay: ITC; replicate #4
T1 chain 1: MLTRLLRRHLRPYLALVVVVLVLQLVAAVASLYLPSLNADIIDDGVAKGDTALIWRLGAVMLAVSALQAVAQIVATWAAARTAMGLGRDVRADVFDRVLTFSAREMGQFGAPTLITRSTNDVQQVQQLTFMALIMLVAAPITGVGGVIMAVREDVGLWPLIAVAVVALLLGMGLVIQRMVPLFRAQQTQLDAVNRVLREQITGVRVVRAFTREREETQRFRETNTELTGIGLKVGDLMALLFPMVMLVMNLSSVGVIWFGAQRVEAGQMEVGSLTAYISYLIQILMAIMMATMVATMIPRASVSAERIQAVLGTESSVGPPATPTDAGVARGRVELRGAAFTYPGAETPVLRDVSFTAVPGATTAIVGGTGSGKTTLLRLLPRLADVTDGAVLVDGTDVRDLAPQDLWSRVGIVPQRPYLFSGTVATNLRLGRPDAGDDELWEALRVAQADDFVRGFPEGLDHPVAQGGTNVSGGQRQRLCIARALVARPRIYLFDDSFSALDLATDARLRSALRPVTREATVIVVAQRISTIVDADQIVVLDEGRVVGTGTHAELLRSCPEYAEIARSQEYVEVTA
T1 chain 2: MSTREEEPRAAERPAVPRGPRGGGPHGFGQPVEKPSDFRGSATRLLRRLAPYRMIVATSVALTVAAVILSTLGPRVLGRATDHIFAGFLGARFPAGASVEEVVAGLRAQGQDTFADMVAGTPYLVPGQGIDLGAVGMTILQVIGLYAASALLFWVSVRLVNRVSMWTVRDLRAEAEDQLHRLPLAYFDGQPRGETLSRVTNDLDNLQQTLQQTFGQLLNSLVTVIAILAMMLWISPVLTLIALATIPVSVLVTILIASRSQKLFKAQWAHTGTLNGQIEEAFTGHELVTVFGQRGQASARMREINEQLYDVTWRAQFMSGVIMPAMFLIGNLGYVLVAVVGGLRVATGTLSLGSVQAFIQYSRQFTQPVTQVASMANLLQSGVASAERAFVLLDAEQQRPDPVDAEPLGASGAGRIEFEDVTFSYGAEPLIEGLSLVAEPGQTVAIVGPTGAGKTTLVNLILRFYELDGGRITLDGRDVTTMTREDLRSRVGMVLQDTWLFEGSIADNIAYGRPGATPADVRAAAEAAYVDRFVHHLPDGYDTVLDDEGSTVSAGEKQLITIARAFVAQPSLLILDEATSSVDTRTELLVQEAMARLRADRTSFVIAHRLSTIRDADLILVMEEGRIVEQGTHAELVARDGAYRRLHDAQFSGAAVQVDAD

[2] = biological target: T2, NBD-truncated OmrDE (OmrD^tcE^tc) (Omithinimicrobium cerasi strain USBA17B2); assay: ITC; replicate #1
T2 chain 1: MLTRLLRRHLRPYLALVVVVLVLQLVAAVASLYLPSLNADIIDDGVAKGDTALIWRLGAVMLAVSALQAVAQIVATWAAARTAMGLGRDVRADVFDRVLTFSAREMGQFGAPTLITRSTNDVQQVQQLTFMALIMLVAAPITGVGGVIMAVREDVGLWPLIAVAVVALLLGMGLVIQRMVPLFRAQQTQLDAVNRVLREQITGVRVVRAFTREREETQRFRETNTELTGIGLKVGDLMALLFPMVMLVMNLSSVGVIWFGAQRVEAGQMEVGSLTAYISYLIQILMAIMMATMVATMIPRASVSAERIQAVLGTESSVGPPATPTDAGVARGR
T2 chain 2: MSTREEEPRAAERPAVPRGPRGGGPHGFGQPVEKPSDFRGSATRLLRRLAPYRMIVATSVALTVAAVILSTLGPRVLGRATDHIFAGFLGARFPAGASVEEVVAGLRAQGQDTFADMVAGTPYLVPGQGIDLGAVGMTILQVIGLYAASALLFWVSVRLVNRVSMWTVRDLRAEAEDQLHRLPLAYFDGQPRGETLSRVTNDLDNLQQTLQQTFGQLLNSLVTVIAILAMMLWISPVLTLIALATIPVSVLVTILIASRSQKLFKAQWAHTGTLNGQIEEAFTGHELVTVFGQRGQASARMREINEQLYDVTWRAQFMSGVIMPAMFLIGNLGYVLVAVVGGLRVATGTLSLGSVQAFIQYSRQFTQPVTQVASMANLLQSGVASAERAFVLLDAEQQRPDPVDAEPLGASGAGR

[3] = biological target: T3, heterodimeric multidrug resistance ABC transporter OmrDE (Omithinimicrobium cerasi strain USBA17B2, UniProt A0A285VW85 1-577; A0A285VWG3 1-661); assay: ITC; OcHeR injected into the Omr protein; 25 °C, 500 rpm; buffer SD; MicroCal ITC200; one site binding model (sequential binding site model for R233Q); perfect saturation was not achieved; details: both partners purified
T3 construct: gene codon-optimized and synthesized; also called OmrDE heterodimer; source: E. coli C43 (DE3), OmrD and OmrE co-expressed, purified (DDM-solubilized membrane fraction, Ni2+-NTA agarose)
T3 sequence (looked up) 1: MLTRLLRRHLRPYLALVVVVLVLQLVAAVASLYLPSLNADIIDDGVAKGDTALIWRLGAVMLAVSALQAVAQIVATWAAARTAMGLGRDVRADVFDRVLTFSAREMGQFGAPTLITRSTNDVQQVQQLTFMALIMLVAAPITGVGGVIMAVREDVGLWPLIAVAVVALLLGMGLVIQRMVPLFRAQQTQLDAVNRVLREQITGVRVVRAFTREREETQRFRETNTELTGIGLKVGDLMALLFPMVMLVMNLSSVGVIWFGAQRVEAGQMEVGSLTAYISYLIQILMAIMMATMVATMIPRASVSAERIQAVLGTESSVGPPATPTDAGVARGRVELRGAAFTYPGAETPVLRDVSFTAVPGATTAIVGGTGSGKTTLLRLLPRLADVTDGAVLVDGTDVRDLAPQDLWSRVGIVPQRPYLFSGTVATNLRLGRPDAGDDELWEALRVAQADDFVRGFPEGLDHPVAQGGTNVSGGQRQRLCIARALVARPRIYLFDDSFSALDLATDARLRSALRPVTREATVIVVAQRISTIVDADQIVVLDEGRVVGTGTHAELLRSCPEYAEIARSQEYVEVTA
T3 sequence (looked up) 2: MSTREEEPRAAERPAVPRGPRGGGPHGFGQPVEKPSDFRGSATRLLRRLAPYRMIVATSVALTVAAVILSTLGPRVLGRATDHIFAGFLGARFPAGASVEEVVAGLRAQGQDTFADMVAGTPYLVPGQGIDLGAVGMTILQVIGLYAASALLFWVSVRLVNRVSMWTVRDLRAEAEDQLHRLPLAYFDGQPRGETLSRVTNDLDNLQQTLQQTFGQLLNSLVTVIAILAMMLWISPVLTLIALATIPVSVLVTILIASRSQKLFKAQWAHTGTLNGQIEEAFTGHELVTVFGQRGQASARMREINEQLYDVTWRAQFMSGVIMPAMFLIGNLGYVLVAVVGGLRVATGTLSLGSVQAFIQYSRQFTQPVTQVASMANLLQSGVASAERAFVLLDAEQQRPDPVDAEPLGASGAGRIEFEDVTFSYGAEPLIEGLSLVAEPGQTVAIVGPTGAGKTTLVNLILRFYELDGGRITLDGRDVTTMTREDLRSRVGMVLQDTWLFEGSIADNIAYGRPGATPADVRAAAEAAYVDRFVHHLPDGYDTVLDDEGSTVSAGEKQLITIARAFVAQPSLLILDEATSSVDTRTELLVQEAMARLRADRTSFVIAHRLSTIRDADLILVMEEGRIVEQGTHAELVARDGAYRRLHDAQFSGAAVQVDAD

[4] = biological target: T3, heterodimeric multidrug resistance ABC …; assay: cell-based or functional assay
OmrE (OmrE-His) = biological target: T4, OmrE (OmrE-His) (Omithinimicrobium cerasi strain USBA17B2, UniProt A0A285VWG3 1-661); assay: ITC; replicate #3
T4 chain: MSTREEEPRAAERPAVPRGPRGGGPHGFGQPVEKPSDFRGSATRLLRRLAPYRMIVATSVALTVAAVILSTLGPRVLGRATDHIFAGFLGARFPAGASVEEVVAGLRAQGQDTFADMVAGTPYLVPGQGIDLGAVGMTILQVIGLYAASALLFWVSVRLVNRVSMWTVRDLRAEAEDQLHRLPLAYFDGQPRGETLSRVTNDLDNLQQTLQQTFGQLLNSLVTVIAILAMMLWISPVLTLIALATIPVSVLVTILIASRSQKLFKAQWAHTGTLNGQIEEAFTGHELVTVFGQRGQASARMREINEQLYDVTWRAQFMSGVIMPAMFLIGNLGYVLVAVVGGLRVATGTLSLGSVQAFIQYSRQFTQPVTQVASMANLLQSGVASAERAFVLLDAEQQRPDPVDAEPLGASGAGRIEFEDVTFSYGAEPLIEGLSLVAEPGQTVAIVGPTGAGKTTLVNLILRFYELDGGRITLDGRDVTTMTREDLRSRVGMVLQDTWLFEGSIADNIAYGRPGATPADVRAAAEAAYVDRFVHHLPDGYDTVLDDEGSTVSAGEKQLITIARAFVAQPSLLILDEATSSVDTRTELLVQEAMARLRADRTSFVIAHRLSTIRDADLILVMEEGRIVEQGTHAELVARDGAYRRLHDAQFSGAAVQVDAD

[5] = biological target: T2, NBD-truncated OmrDE (OmrD^tcE^tc); assay: ITC; replicate #3

B1: Omithinimicrobium cerasi strain USBA17B2 heliorhodopsin (OcHeR) WT (natural protein, UniProt A0A285W045 1-266, looked up)
chain: MGSTGTGSTASTTRADESRYAGLRRYNVVAAVVHAAQAVAVVVLATDFTLPMTASYLAGPPGSPPGEAVTLWDVPIPLAIATFLALSALFHVIVASPPFFDRYRRGLAQGHNYFRWVEYSLSSSLMIVIIAQLVGISDVVALLGLFGVNASMILFGWLQEKYHQPGDGGWLPFVFGCLAGAVPWVGIVLYTIAPGSTSGAEPPGFVYGIIVSLFLFFNVFALVQWLQYRPVGRFRDYLLGERLYITLSLVAKSALAWQIFGGTLAT
modifications: retinal Schiff base linked to K252
notes: gene codon-optimized for E. coli and chemically synthesized; source: E. coli C43 (DE3), purified (DDM-solubilized membrane fraction, Ni2+-NTA agarose)
Kd [1]: 62 µM | Kd [2]: 42 µM | Kd [3]: 91.6 µM | dH [3]: 48.9 kcal/mol | kcat/Km of ATP hydrolysis of purified OmrDE with OcHeR WT (1:1), absence of light [4]: 37.7 M^−1 S^−1 | kcat/Km of ATP hydrolysis of purified OmrDE with OcHeR WT (1:1), presence of light (532 nm) [4]: 58.4 M^−1 S^−1 | Kd (OmrE (OmrE-His)): 46 µM | Kd [5]: 46 µM
